Drawing on article PMC11252808 (Proceedings of the National Academy of Sciences of the …, 2024), this text covers Kd for 1 molecule.

Where no end group is shown, it is not given here. [ ]: non-standard residue; d: D form. pS = N[C@@H](COP(=O)(O)O)C(=O)O

This test deals with T1, recombinant SUFU (UniProt Q9UMX1 1-484).
T1 sequence (looked up): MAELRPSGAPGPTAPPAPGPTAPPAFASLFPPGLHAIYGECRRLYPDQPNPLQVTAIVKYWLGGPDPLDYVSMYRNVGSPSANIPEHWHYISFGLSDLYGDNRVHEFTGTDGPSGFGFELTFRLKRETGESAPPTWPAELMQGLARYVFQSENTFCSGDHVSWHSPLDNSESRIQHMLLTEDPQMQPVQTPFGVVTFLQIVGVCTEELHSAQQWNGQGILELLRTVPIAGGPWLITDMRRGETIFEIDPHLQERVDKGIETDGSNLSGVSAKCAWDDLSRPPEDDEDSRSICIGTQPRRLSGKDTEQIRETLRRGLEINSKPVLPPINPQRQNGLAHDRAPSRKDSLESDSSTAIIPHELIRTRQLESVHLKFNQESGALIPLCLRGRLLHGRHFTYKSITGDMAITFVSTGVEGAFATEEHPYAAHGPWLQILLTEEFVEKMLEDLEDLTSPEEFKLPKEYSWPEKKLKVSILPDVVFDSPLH
Nature of the test: SPR.

Broadly, the Kd is the equilibrium constant for the complex coming apart. On to MIRT[pS]PNSLVTILNNSRSSSSASGSYGHLSASAISPA (peptide, UniProt P10071 309-345, looked up) [phosphorylated GLI3 peptide (phospho-GLI3^S313_(309–345))], for which the Kd worked out at 5.08 µM.
